In the Human Domainome abundance scans (Beltran et al. 2025) one finds abundance fitness data, which are given here for 34 variants.

The labels stand for the following.
B1: Receptor-interacting serine/threonine-protein kinase 2, residues 438 to 518; numbered along this chain, O43353 (parent)
chain: QWIQSKREDIVNQMTEACLNQSLDALLSRDLIMKEDYELVSTKPTRTSKVRQLLDTTDIQGEEFAKVIVQKLKDNKQMGLQ
B2: Advillin, residues 785 to 819; numbered along this chain, O75366 (parent)
chain: LSEQDFVSVFGITRGQFAALPGWKQLQMKKEKGLF

± gives the uncertainty stated by the source.

Variants of B1 are the subject of one series. Kind of series: abundance fitness (aPCA) (normalised: wild type 0, dead -1); higher = more abundant; growth selection in yeast, the domain comes from the species named. As to conditions: Homo sapiens.
Turning to QWIQSKREDIVNQMTEACLNQSLDALLSRDLIMKEDYELVSTKPTRTSKVRQLLDTTDIQGEEFAKVIVQKLKDVKQMGLQ [N75V], the abundance fitness is -0.383 ± 0.06. Still for that read-out and setting: the figure for QWIQSKREDIVNQMTEACLNQSLDALLSRDLIMKEDYELVSTKPTRTSKVRQLLDTTDIQGEEFAKVIVQKLKDYKQMGLQ [N75Y] is -0.285 ± 0.14; for QWIQSKREDIVNQMTEACLNQSLDALLSRDLIMKEDYELVSTKPTRTSKVRQLLDTTDIQGEEFAKVIVQKLKDTKQMGLQ [N75T] it is -0.245 ± 0.066; for QWIQSKREDIVNQMTEACLNQSLDALLSRDLIMKEDYELVSTKPTRTSKVRQLLDTTDIQGEEFAKVIVQKLKDQKQMGLQ [N75Q] it is -0.046 ± 0.1. The same measure, in the same setting: as for QWIQSKREDIVNQMTEACLNQSLDALLSRDLIMKEDYELVSTKPTRTSKVRQLLDTTDIQGEEFAKVIVQKLKDPKQMGLQ [N75P], the figure is -0.446 ± 0.07. On the same count and under the same terms, as for QWIQSKREDIVNQMTEACLNQSLDALLSRDLIMKEDYELVSTKPTRTSKVRQLLDTTDIQGEEFAKVIVQKLKDCKQMGLQ [N75C], the figure is -0.2 ± 0.084. Turning to QWIQSKREDIVNQMTEACLNQSLDALLSRDLIMKEDYELVSTKPTRTSKVRQLLDTTDIQGEEFAKVIVQKLKDRKQMGLQ [N75R], the abundance fitness was -0.62 ± 0.045. Still for that read-out and setting: as for QWIQSKREDIVNQMTEACLNQSLDALLSRDLIMKEDYELVSTKPTRTSKVRQLLDTTDIQGEEFAKVIVQKLKDMKQMGLQ [N75M], the figure is -0.162 ± 0.12; as for QWIQSKREDIVNQMTEACLNQSLDALLSRDLIMKEDYELVSTKPTRTSKVRQLLDTTDIQGEEFAKVIVQKLKDAKQMGLQ [N75A], -0.281 ± 0.071; as for QWIQSKREDIVNQMTEACLNQSLDALLSRDLIMKEDYELVSTKPTRTSKVRQLLDTTDIQGEEFAKVIVQKLKDHKQMGLQ [N75H], -0.024 ± 0.095. The same measure, in the same setting: as for QWIQSKREDIVNQMTEACLNQSLDALLSRDLIMKEDYELVSTKPTRTSKVRQLLDTTDIQGEEFAKVIVQKLKDGKQMGLQ [N75G], the figure is -0.241 ± 0.055; as for QWIQSKREDIVNQMTEACLNQSLDALLSRDLIMKEDYELVSTKPTRTSKVRQLLDTTDIQGEEFAKVIVQKLKDDKQMGLQ [N75D], -0.053 ± 0.1; as for QWIQSKREDIVNQMTEACLNQSLDALLSRDLIMKEDYELVSTKPTRTSKVRQLLDTTDIQGEEFAKVIVQKLKDKKQMGLQ [N75K], -0.535 ± 0.14.

As for QWIQSKREDIVNQMTEACLNQSLDALLSRDLIMKEDYELVSTKPTRTSKVRQLLDTTDIQGEEFAKVIVQKLKDNKQMSLQ [G79S], the abundance fitness was -0.021 ± 0.18. As to QWIQSKREDIVNQMTEACLNQSLDALLSRDLIMKEDYELVSTKPTRTSKVRQLLDTTDIQGEEFAKVIVQKLKDNKQMVLQ [G79V], the abundance fitness is -0.167 ± 0.29. Turning to QWIQSKREDIVNQMTEACLNQSLDALLSRDLIMKEDYELVSTKPTRTSKVRQLLDTTDIQGEEFAKVIVQKLKDNKQMRLQ [G79R], the abundance fitness is -0.282 ± 0.14.

For the variant QWIQSKREDIVNQMTEACLNQSLDALLSRDLIMKEDYELVSTKPTRTSKVRQLLDTTDIQGEEFAKVIVQKLKDNTQMGLQ [K76T], the abundance fitness is -0.093 ± 0.1. Still for that read-out and setting: the figure for QWIQSKREDIVNQMTEACLNQSLDALLSRDLIMKEDYELVSTKPTRTSKVRQLLDTTDIQGEEFAKVIVQKLKDNYQMGLQ [K76Y] is -0.272 ± 0.15; for QWIQSKREDIVNQMTEACLNQSLDALLSRDLIMKEDYELVSTKPTRTSKVRQLLDTTDIQGEEFAKVIVQKLKDNNQMGLQ [K76N] it is -0.203 ± 0.35. The same measure, in the same setting: as for QWIQSKREDIVNQMTEACLNQSLDALLSRDLIMKEDYELVSTKPTRTSKVRQLLDTTDIQGEEFAKVIVQKLKDNSQMGLQ [K76S], the figure is 0.032 ± 0.071; as for QWIQSKREDIVNQMTEACLNQSLDALLSRDLIMKEDYELVSTKPTRTSKVRQLLDTTDIQGEEFAKVIVQKLKDNPQMGLQ [K76P], -0.314 ± 0.15; as for QWIQSKREDIVNQMTEACLNQSLDALLSRDLIMKEDYELVSTKPTRTSKVRQLLDTTDIQGEEFAKVIVQKLKDNAQMGLQ [K76A], 0.008 ± 0.087. Take QWIQSKREDIVNQMTEACLNQSLDALLSRDLIMKEDYELVSTKPTRTSKVRQLLDTTDIQGEEFAKVIVQKLKDNDQMGLQ [K76D]: the abundance fitness is -0.192 ± 0.14.

Regarding QWIQSKREDIVNQMTEACLNQSLDALLSRDLIMKEDYELVSTKPTRTSKVRQLLDTTDIQGEEFAKVIVQKLKDNEQMGLQ [K76E], the abundance fitness is -0.19 ± 0.14. Consider QWIQSKREDIVNQMTEACLNQSLDALLSRDLIMKEDYELVSTKPTRTSKVRQLLDTTDIQGEEFAKVIVQKLKDNCQMGLQ [K76C], for which the abundance fitness amounted to 0.003 ± 0.14. Still for that read-out and setting: as for QWIQSKREDIVNQMTEACLNQSLDALLSRDLIMKEDYELVSTKPTRTSKVRQLLDTTDIQGEEFAKVIVQKLKDNHQMGLQ [K76H], the figure is -0.069 ± 0.15; as for QWIQSKREDIVNQMTEACLNQSLDALLSRDLIMKEDYELVSTKPTRTSKVRQLLDTTDIQGEEFAKVIVQKLKDNLQMGLQ [K76L], -0.125 ± 0.086. QWIQSKREDIVNQMTEACLNQSLDALLSRDLIMKEDYELVSTKPTRTSKVRQLLDTTDIQGEEFAKVIVQKLKDNQQMGLQ [K76Q]: the abundance fitness was -0.032 ± 0.085. The same measure, in the same setting: as for QWIQSKREDIVNQMTEACLNQSLDALLSRDLIMKEDYELVSTKPTRTSKVRQLLDTTDIQGEEFAKVIVQKLKDNFQMGLQ [K76F], the figure is -0.207 ± 0.14; as for QWIQSKREDIVNQMTEACLNQSLDALLSRDLIMKEDYELVSTKPTRTSKVRQLLDTTDIQGEEFAKVIVQKLKDNVQMGLQ [K76V], -0.301 ± 0.092. The same measure, in the same setting: the figure for QWIQSKREDIVNQMTEACLNQSLDALLSRDLIMKEDYELVSTKPTRTSKVRQLLDTTDIQGEEFAKVIVQKLKDNWQMGLQ [K76W] is -0.36 ± 0.11. Still for that read-out and setting: as for QWIQSKREDIVNQMTEACLNQSLDALLSRDLIMKEDYELVSTKPTRTSKVRQLLDTTDIQGEEFAKVIVQKLKDNGQMGLQ [K76G], the figure is 0.066 ± 0.057. As for QWIQSKREDIVNQMTEACLNQSLDALLSRDLIMKEDYELVSTKPTRTSKVRQLLDTTDIQGEEFAKVIVQKLKDNRQMGLQ [K76R], the abundance fitness was -0.192 ± 0.065.

The variants in the next series derive from B2. The series is described as above. To be noted: Homo sapiens.
Turning to ASEQDFVSVFGITRGQFAALPGWKQLQMKKEKGLF [L1A], the abundance fitness is -0.322 ± 0.2.
